Laboratory results reported in patent US20130195859.

Test system: plasma derived alpha-1 antitrypsin (AAT)

recombinant active caspase-1
caspase-1 activity (in arbitrary units), colorimetric substrate, in vitro with recombinant active caspase-1: AAT has a direct inhibitory effect on caspase-1 activity in vitro
